Laboratory results as given in the supplement of paper PMC12042874.
± gives the uncertainty stated by the source.

Test: amyloid nucleation score (Sup35N fusion, yeast selection) (log enrichment); library NNK3; higher = more nucleation; inactive = no reads after selection
Outline: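 Growth for 7 days at 30°C on medium lacking adenine and uracil followed a 24-hour induction with 100 μM copper sulfate of psi-negative yeast expressing peptides of 20 random codons fused to Sup35N. Input and output plasmid inserts were sequenced with Illumina, and sequences with under 100 input reads were excluded. Nucleation score is the DiMSum log enrichment of output over input reads, centred on the mode score of non-aggregating sequences.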

Amyloid nucleation score, 1.26 ± 0.17:
GSGYVTGGSSLLRARWSRGG

Amyloid nucleation score, 0.164 ± 0.42:
GSGVRGQRMSGKCR

Amyloid nucleation score, 0.881 ± 0.17:
GWAGGSLNARMSRWF

Amyloid nucleation score, 2.27 ± 0.05:
GYILVLYADRAKICDKFYVG

Amyloid nucleation score, inactive:
GSEMVAGHS
GSFGYNCVKFHSDGFQAGRG
GSFYCLYFVGDVIIILTCLR
GSGMGL
GSHELHWSVGYQESVLLRYH
GSMLKAMELSDVVGSCIY
GSNVNEVKNAQYTSRVGVCR
GSNYSWSLLL
GSSISRRDFNVAILFWWQGD
GSVSYISLSDNWVSGRKK
GSWDI
GTEVILSLVSESTGKRAARL
GTKWSATITGWV
GTNFALRHGMIILSRLWAYW
GTPALCQ
GTSMSRPDIVTDKVMPFLRR
GVEIRYLQQ
GVFMLVSNFASNWAT
GVGLIE
GVHIMRGGGIYVVGGLESWA
GVKCPKKTNRQWGIVALMRP
GVKVSDMSPDRDNLWFSRCS
GVMYQACWSLASTYFTVNSS
GVNDRGDENGVVGA
GVSRGLSLPRSLKYRYCCAV
GVSRLETGNFAASPMMHYKG
GVVLSYNGTFWRVLINHHMC
GVYMLLDVPYGTASTSAMGS
GVYSVSLLVLWMSMRASIAC
GWPVSLN
GWVFTMDFTSYLECTDMGRS
GYDAGAWPRWRRSIWVHGYG
GYLIIVIRLSAIDRHQ
GYLRNMVWRMSQYIREVCPR
GYRDLRGWNVNRKDSLVS
GYSKNI
GYVGLHTFSWEDLENRMDKH
HALGVSGRFDNNVVIFARGS
HALSRDVVKMLCSFNNYLTW
HANCANRLNYLYVLYRAS
HCSYCVVSE
HCVNRRKQYVRIRTYARLPC
HDLAETCGSSPI
HDVDLGWFSRYGIFRALRRE
HDYDAIRRLSRMCDVVEYSR
HEISSICTRFWANSLIRMSC
HEYECGWIGVVFTMILMSLS
HFAYRFCYLANRRRDVYRSA

Amyloid nucleation score, -0.557 ± 1:
GTDWCTRHMPGIDPCDSVVC

Amyloid nucleation score, 2.84 ± 0.079:
GSRLAGLVVYDFSLSQWYFS

Amyloid nucleation score, -0.317 ± 0.65:
GYGSAQCQFRWWYCFE

Amyloid nucleation score, -0.315 ± 0.84:
HAFYALDKKVPVTQLKFARQ

Amyloid nucleation score, 1.74 ± 0.078:
GVLCMWHLCFDVCDGKIIGG

Amyloid nucleation score, 2.02 ± 0.076:
GSSYGVIIVQYYP

Amyloid nucleation score, 1.78 ± 0.095:
GVLQLNVIVTYFVMDMCSWL

Amyloid nucleation score, 0.63 ± 0.14:
GVFFFNYLNS

Amyloid nucleation score, 2.4 ± 0.084:
GTGWVTSVFLCTVNWVDHRR

Amyloid nucleation score, 0.139 ± 0.45:
GTRNMKPLTKAETSRLG

Amyloid nucleation score, -0.495 ± 1:
GYICLGPPAVTVIYVRICRQ

Amyloid nucleation score, -0.931 ± 1.9:
GVWVA

Amyloid nucleation score, 0.389 ± 0.22:
GWVYDMVYYRSVKMGCAKRS
